Test results published in patent US20250262210A1 (TRUSTEES OF COLUMBIA UNIVERSITY IN THE CITY OF NEW YORK, published 2025).

How the values were obtained:
Assay in all cases: IP/MS, LZTR1 wild type-FLAG, U87
[1] = biological target: T1, MOCOS (human, UniProt Q96EN8 1-888)
T1 sequence (looked up): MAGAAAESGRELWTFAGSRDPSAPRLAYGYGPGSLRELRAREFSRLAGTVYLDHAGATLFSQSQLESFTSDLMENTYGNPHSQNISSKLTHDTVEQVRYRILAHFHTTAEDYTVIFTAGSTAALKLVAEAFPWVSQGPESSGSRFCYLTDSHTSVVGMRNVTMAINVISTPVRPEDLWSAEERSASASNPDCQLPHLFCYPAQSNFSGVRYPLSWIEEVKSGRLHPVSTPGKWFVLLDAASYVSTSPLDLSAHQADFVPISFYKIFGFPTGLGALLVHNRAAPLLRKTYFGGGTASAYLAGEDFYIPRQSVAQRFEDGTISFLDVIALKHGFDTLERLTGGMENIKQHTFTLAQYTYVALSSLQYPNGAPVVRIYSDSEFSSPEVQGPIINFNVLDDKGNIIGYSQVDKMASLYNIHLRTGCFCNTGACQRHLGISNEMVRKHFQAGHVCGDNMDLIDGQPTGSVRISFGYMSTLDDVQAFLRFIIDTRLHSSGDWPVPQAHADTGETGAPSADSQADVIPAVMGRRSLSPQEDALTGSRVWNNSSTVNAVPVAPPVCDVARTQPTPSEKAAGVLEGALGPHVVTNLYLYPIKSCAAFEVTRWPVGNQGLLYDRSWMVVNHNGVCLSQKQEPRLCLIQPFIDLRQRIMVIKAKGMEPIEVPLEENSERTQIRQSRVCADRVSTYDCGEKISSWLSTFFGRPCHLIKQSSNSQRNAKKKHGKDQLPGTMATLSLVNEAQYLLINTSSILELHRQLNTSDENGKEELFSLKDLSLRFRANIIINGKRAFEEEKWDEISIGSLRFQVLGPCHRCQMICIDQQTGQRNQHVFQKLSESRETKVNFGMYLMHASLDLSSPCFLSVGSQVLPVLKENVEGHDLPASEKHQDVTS
Procedure, shortened: (§1)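 Extracted peptides in 3% acetonitrile/0.1% formic acid ran on a 50 cm C18 column into an Orbitrap Fusion, with MaxQuant identification and spectral counting.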

[2] = biological target: ARHGEF40 (human, UniProt Q8TER5 1-1519, limits assumed)
Procedure, shortened: as §1

[3] = biological target: T2, POLR3A (human, UniProt O14802 1-1390)
T2 sequence (looked up): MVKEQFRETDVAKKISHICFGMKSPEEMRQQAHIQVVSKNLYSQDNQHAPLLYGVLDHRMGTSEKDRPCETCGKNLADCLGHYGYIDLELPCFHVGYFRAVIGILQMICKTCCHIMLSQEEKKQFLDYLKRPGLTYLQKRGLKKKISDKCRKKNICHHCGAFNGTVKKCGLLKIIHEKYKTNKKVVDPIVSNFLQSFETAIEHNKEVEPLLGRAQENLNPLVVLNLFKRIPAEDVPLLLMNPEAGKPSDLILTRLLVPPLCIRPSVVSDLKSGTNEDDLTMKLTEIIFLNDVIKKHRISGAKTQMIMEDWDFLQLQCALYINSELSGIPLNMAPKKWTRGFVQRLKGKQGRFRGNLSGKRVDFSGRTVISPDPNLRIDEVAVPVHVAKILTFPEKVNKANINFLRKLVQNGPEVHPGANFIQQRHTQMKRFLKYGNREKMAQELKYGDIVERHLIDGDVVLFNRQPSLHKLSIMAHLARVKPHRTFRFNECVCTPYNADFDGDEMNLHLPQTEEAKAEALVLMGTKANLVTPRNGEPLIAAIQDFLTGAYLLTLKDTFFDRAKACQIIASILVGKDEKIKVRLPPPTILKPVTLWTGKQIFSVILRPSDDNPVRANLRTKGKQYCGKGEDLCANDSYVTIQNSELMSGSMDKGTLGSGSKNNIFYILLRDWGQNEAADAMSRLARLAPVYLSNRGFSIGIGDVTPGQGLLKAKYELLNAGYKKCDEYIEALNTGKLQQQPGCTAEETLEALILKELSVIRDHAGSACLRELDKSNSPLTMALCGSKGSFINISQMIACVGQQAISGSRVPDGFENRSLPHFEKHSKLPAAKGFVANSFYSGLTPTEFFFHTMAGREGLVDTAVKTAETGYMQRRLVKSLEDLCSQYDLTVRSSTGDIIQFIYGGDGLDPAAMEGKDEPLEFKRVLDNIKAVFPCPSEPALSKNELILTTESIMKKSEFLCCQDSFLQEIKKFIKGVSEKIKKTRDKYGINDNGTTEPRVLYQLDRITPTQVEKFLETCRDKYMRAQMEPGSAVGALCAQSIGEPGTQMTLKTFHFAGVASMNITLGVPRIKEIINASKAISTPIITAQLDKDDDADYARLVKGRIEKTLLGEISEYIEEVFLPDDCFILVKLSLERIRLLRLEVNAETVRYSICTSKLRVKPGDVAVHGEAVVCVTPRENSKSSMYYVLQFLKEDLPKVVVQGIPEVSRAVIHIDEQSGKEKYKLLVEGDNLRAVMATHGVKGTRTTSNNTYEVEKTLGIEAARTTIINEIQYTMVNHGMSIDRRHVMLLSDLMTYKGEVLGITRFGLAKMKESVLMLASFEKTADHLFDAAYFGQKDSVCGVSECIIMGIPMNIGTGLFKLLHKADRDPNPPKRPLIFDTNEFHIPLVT
Procedure, shortened: as §1

Measured: binding result

ARHGEF40, sequence (Q8TER5 whole entry): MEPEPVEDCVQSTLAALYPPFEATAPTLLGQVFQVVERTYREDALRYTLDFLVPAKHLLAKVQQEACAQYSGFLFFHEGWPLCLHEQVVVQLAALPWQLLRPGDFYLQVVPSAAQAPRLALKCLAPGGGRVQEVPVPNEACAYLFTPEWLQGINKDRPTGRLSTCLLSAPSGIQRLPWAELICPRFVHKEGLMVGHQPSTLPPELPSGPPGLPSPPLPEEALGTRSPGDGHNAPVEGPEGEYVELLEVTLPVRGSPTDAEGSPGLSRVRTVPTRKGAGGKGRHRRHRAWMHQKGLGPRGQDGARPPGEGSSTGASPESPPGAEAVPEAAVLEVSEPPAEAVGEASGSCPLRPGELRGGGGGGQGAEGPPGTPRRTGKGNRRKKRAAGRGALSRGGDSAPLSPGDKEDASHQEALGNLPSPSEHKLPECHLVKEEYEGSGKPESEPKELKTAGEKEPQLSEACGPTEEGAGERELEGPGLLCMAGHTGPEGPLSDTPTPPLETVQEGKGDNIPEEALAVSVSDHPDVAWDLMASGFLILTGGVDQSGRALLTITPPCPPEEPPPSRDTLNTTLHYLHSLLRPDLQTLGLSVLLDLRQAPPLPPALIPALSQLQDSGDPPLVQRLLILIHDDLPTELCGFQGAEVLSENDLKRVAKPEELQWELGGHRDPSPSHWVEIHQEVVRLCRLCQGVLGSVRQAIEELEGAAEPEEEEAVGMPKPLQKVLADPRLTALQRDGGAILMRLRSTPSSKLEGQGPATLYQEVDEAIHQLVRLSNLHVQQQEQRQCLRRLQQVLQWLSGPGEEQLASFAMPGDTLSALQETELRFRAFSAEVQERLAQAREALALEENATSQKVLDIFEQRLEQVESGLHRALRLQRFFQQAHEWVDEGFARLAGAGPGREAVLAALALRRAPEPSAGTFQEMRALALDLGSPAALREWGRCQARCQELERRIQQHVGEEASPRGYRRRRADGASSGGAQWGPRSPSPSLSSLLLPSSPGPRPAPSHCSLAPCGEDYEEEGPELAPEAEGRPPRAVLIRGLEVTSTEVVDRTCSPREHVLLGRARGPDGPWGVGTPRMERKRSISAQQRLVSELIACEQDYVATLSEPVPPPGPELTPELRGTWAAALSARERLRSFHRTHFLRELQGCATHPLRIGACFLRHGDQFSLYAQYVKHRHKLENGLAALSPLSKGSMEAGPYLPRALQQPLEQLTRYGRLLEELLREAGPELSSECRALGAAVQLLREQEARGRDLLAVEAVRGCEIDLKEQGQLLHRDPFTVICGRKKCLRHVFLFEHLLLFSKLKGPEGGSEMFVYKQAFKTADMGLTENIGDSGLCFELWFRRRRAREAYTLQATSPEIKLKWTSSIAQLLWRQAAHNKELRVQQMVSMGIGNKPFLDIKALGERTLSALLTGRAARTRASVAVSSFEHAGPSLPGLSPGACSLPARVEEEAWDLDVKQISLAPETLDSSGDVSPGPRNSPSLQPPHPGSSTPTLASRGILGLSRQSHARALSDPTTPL

B1: LZTR1-FLAG (other, human, UniProt Q8N653 1-840, looked up)
chain: MAGPGSTGGQIGAAALAGGARSKVAPSVDFDHSCSDSVEYLTLNFGPFETVHRWRRLPPCDEFVGARRSKHTVVAYKDAIYVFGGDNGKTMLNDLLRFDVKDCSWCRAFTTGTPPAPRYHHSAVVYGSSMFVFGGYTGDIYSNSNLKNKNDLFEYKFATGQWTEWKIEGRLPVARSAHGATVYSDKLWIFAGYDGNARLNDMWTIGLQDRELTCWEEVAQSGEIPPSCCNFPVAVCRDKMFVFSGQSGAKITNNLFQFEFKDKTWTRIPTEHLLRGSPPPPQRRYGHTMVAFDRHLYVFGGAADNTLPNELHCYDVDFQTWEVVQPSSDSEVGGAEVPERACASEEVPTLTYEERVGFKKSRDVFGLDFGTTSAKQPTQPASELPSGRLFHAAAVISDAMYIFGGTVDNNIRSGEMYRFQFSCYPKCTLHEDYGRLWESRQFCDVEFVLGEKEECVQGHVAIVTARSRWLRRKITQARERLAQKLEQEAAPVPREAPGVAAGGARPPLLHVAIREAEARPFEVLMQFLYTDKIKYPRKGHVEDVLLIMDVYKLALSFQLCRLEQLCRQYIEASVDLQNVLVVCESAARLQLSQLKEHCLNFVVKESHFNQVIMMKEFERLSSPLIVEIVRRKQQPPPRTPLDQPVDIGTSLIQDMKAYLEGAGAEFCDITLLLDGHPRPAHKAILAARSSYFEAMFRSFMPEDGQVNISIGEMVPSRQAFESMLRYIYYGEVNMPPEDSLYLFAAPYYYGFYNNRLQAYCKQNLEMNVTVQNVLQILEAADKTQALDMKRHCLHIIVHQFTKVSKLPTLRSLSQQLLLDIIDSLASHISDKQCAELGADI
notes: Expressed in HEK 293T, HeLa or U87 cells; used as cell lysate; also called LZTR1 wild type-FLAG; LZTR1 WT; not shown: FLAG tag at the C-terminus
binds: all assays above
